Drawing on article PMC4902928, “Molecular characterization of flavanone 3-hydroxylase gene and flavonoid accumulation in two chemotyped safflower lines in response to methyl jasmonate stimulation” (BMC Plant Biology, 2016), this text covers Km for one substance.

The data set deals with T1, O=C1C[C@@H](c2ccc(O)cc2)Oc2cc(O)cc(O)c21.
T1 construct: MBP fusion (pMAL-c5X) from E. coli BL21(DE3)pLysS, MBP tag cut off by factor Xa
Put plainly: UPLC-Q-TOF/MS of dihydrokaempferol formed; Michaelis-Menten fit. In kind it is biochemical, Carthamus tinctorius. To be noted: 1 mM 2-oxoglutaric acid, 40 μM FeSO4, 2 mg/ml ascorbic acid, 100 mM tricine pH 7.5, 30 °C, naringenin 10-800 μM, unit misprinted as 'Mm'.

CtF3H (Carthamus tinctorius), sequence (chain, as listed by the source): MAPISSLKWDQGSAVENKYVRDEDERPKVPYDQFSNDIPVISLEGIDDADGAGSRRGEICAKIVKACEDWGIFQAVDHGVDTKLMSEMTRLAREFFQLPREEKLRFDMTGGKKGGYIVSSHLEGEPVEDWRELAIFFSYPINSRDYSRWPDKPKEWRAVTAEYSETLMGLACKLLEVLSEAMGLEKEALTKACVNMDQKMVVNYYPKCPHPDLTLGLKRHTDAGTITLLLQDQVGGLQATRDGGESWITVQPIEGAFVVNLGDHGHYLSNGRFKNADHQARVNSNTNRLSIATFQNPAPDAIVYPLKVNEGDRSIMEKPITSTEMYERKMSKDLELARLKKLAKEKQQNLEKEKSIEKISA

Broadly, the Km is the concentration of substrate that gives half-maximal velocity. In the case of CtF3H (Carthamus tinctorius), the Km was found to be 43.75 ± 7.12 µM.
